B1: High osmolarity signaling protein SHO1 (Saccharomyces cerevisiae), P40073 (parent)
chain: MSISSKIRPTPRKPSRMATDHSFKMKKFYADPFAISSISLAIVSWVIAIGGSISSASTNESFPRFTWWGIVYQFLIICSLMLFYCFDLVDHYRIFITTSIAVAFVYNTNSATNLVYADGPKKAAASAGVILLSIINLIWILYYGGDNASPTNRWIDSFSIKGIRPSPLENSLHRARRRGNRNTTPYQNNVYNDAIRDSGYATQFDGYPQQQPSHTNYVSSTALAGFENTQPNTSEAVNLHLNTLQQRINSASNAKETNDNSNNQTNTNIGNTFDTDFSNGNTETTMGDTLGLYSDIGDDNFIYKAKALYPYDADDDDAYEISFEQNEILQVSDIEGRWWKARRANGETGIIPSNYVQLIDGPEEMHR
B2: High osmolarity signaling protein SHO1 (Saccharomyces cerevisiae), P40073 (parent)
chain: B1 chain
partner: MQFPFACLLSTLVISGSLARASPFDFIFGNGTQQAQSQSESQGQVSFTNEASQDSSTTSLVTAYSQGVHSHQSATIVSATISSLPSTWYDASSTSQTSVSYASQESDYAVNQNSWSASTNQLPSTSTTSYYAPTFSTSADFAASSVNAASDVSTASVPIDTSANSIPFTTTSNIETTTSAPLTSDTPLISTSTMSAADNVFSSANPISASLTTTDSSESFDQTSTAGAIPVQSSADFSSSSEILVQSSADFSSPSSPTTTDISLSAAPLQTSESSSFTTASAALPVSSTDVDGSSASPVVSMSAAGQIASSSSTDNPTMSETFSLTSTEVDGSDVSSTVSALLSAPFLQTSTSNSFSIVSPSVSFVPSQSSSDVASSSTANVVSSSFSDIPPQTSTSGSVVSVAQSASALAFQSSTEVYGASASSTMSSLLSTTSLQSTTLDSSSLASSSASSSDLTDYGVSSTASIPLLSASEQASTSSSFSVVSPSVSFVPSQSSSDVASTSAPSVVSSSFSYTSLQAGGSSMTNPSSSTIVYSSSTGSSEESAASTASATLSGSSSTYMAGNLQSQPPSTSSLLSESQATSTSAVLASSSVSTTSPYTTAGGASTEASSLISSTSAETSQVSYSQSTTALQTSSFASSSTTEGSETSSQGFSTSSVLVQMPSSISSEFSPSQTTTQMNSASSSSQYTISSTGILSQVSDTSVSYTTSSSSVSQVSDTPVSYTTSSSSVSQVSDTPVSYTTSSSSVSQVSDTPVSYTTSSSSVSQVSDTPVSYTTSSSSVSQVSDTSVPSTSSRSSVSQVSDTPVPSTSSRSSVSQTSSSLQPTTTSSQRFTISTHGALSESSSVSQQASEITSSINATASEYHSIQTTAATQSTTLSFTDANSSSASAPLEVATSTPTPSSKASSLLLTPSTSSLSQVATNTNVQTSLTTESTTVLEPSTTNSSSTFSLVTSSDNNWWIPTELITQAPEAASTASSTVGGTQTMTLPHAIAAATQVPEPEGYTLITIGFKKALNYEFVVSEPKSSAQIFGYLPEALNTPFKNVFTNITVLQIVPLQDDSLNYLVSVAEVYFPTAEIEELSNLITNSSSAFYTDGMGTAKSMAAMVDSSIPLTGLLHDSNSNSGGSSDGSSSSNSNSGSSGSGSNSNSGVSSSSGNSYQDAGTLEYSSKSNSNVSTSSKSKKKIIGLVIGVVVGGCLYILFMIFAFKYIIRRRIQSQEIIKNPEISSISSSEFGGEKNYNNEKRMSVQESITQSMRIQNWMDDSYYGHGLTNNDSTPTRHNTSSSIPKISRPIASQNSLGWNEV

Variants of: B1
Details: with hkr1_yeast HKR1, P41809
Sequence of hkr1_yeast HKR1, P41809 (P41809 whole entry): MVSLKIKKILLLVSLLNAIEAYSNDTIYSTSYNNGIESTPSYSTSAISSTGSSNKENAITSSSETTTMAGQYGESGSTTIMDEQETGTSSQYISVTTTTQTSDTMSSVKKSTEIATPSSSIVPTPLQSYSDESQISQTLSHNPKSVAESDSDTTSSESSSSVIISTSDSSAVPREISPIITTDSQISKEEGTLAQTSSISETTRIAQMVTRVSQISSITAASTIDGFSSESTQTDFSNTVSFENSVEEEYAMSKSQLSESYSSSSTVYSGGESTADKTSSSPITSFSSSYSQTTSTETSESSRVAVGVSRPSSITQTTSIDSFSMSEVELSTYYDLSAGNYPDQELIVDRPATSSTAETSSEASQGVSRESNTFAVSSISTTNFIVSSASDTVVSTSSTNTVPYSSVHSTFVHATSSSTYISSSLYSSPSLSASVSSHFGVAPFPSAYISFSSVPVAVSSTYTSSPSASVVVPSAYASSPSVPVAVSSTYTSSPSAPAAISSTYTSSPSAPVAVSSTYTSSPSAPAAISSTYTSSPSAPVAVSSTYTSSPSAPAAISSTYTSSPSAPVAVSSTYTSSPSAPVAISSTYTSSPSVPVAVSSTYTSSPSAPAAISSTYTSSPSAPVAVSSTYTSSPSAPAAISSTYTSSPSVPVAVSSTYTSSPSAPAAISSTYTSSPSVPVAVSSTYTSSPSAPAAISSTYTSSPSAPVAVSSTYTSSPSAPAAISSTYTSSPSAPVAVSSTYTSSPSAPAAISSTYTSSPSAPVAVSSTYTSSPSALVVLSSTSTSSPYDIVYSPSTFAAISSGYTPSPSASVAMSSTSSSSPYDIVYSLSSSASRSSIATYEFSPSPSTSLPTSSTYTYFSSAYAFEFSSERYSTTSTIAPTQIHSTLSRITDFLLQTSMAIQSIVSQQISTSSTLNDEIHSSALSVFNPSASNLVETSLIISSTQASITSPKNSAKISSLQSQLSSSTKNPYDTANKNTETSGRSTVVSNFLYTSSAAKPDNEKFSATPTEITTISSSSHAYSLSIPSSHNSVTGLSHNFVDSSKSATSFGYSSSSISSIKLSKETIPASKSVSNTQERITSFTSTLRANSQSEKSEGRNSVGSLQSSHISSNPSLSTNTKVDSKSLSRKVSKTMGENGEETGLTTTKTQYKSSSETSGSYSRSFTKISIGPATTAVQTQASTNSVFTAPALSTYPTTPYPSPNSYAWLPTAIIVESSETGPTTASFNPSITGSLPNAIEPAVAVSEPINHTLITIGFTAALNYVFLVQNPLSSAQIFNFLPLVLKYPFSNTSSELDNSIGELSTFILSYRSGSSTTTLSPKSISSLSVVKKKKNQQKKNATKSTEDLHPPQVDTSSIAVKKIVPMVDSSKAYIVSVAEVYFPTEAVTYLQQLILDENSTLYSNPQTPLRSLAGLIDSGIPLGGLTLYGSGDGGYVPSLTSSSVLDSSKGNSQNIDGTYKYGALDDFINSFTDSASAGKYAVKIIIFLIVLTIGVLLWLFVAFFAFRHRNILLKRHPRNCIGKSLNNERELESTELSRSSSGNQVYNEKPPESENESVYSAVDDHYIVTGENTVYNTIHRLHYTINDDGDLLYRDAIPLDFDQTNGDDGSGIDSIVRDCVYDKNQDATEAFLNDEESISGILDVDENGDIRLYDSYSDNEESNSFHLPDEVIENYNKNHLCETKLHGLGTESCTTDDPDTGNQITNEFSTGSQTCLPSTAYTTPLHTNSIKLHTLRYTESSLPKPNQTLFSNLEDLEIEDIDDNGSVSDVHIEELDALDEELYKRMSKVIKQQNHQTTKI

effect of a mutation on the interaction	Variant
decreasing interaction	Y106H
decreasing interaction	T108I

Variants of: B2
Details: with msb2_yeast MSB2, P32334

effect of a mutation on the interaction	Variant
decreasing interaction	T108I
decreasing interaction	Y106H

— IntAct's records for PubMed 17627274
